Reference: PMC3755337

Tests used:
Assay in all cases: SEC; purified mutant TNFα alone on a size exclusion column; single peak; column and buffer not given
[1] = target: mTNFα mutant 1, [Q6R, N7T, S8P]mTNF-α(1–156) (mouse)
[2] = target: mTNFα mutant 2, [Q6R, N7T, S8P, A52S, D53E]mTNF-α(1–156) (mouse)
[3] = target: mTNFα mutant 3, [S30N, Q31R]mTNF-α(1–156) (mouse)
[4] = target: mTNFα mutant 4, [D71S, Y72H, ins 71_T_72]mTNF-α(1–156) (mouse)
[5] = target: mTNFα mutant 5, [P101Q, K102R, D103E, L110A]mTNF-α(1–156) (mouse)
[6] = target: mTNFα mutant 6, D71S, Y72H, ins 71_T_72, P101Q, K102R,D103E,L110A]mTNF-α(1–156) (mouse)
[7] = target: mTNFα mutant 7, [E88T]mTNF-α(1–156) (mouse)
[8] = target: mTNFα mutant 8, [L137R, K139D]mTNF-α(1–156) (mouse)
[9] = target: mTNFα mutant 9, [H20P, V22A, E24G, E27Q]mTNF-α(1–156) (mouse)
[10] = target: mTNFα mutant 10, [H20P, V22A, E24G, E27Q, S30N, Q31R, L137R, K139D]mTNF-α(1–156) (mouse)
[11] = target: mTNFα mutant 11, [Q130R]mTNF-α(1–156) (mouse)
[12] = target: mTNFα mutant 12, [D42E, K44R, F82I, I84V, E88T, Q130R]mTNF-α(1–156) (mouse)
[13] = target: mTNFα mutant 13, [M41V, V58I, V79I, V96I, V135I, V153I]mTNF-α(1–156) (mouse)
[14] = target: mTNFα mutant 14, [H20P, V22A, E24G, E27Q, M41V, V58I, V79I, V96I, V135I, V153I]mTNF-α(1–156) (mouse)
[15] = target: mTNFα mutant 15, [H20P, V22A, E24G, E27Q, S30N, Q31R, M41V, V58I, V79I, V96I, V135I, L137R, K139D, V153I]mTNF-α(1–156) (mouse)
[16] = target: mTNFα mutant 16, [L1V, Q6R, N7T, S8P, H20P, V22A, E24G, E27Q, S30N, Q31R, M41V, V58I, V79I, V96I, V135I, L137R, K139D, V153I]mTNF-α(1–156) (mouse)
[17] = target: mTNFα mutant 17, [L1V, Q6R, N7T, S8P, H20P, V22A, E24G, E27Q, S30N, Q31R, M41V, D42E, K44R, A52S, D53E, V58I, V79I, F82I, I84V, E88T, V96I, Q130R, V135I, L137R, K139D, V153I]mTNF-α(1–156) (mouse)
[18] = target: mTNFα mutant 18, [L1V, Q6R, N7T, S8P, H20P, V22A, E24G, E27Q, S30N, Q31R, M41V, V58I, V79I, V96I, V135I, V153I]mTNF-α(1–156) (mouse)
[19] = target: mTNFα mutant 19, [L1V, Q6R, N7T, S8P, H20P, V22A, E24G, E27Q, S30N, Q31R, M41V, D42E, K44R, V58I, V79I, V96I, P101Q, K102R, D103E, L110A, V135I, L137R, K139D, V153I]mTNF-α(1–156) (mouse)
[20] = target: mTNFα mutant 20, [L1V, Q6R, N7T, S8P, H20P, V22A, E24G, E27Q, S30N, Q31R, M41V, D42E, K44R, V58I, D71S, Y72H, ins 71_T_72, V79I, V96I, P101Q, K102R, D103E, L110A, V135I, L137R, K139D, V153I]mTNF-α(1–156) (mouse)

mTNFα mutant 1, [Q6R, N7T, S8P]mTNF-α(1–156) (natural protein)
stoichiometry N [1]: 3

mTNFα mutant 2, [Q6R, N7T, S8P, A52S, D53E]mTNF-α(1–156) (natural protein)
stoichiometry N [2]: 3

mTNFα mutant 3, [S30N, Q31R]mTNF-α(1–156) (natural protein)
stoichiometry N [3]: 3

mTNFα mutant 4, [D71S, Y72H, ins 71_T_72]mTNF-α(1–156) (natural protein)
stoichiometry N [4]: 3

mTNFα mutant 5, [P101Q, K102R, D103E, L110A]mTNF-α(1–156) (natural protein)
stoichiometry N [5]: 3

mTNFα mutant 6, D71S, Y72H, ins 71_T_72, P101Q, K102R,D103E,L110A]mTNF-α(1–156) (natural protein)
stoichiometry N [6]: 3

mTNFα mutant 7, [E88T]mTNF-α(1–156) (natural protein)
stoichiometry N [7]: 3

mTNFα mutant 8, [L137R, K139D]mTNF-α(1–156) (natural protein)
stoichiometry N [8]: 3

mTNFα mutant 9, [H20P, V22A, E24G, E27Q]mTNF-α(1–156) (natural protein)
stoichiometry N [9]: 3

mTNFα mutant 10, [H20P, V22A, E24G, E27Q, S30N, Q31R, L137R, K139D]mTNF-α(1–156) (natural protein)
stoichiometry N [10]: 3

mTNFα mutant 11, [Q130R]mTNF-α(1–156) (natural protein)
stoichiometry N [11]: 3

mTNFα mutant 12, [D42E, K44R, F82I, I84V, E88T, Q130R]mTNF-α(1–156) (natural protein)
stoichiometry N [12]: 3

mTNFα mutant 13, [M41V, V58I, V79I, V96I, V135I, V153I]mTNF-α(1–156) (natural protein)
stoichiometry N [13]: 3

mTNFα mutant 14, [H20P, V22A, E24G, E27Q, M41V, V58I, V79I, V96I, V135I, V153I]mTNF-α(1–156) (natural protein)
stoichiometry N [14]: 3

mTNFα mutant 15, [H20P, V22A, E24G, E27Q, S30N, Q31R, M41V, V58I, V79I, V96I, V135I, L137R, K139D, V153I]mTNF-α(1–156) (natural protein)
stoichiometry N [15]: 3

mTNFα mutant 16, [L1V, Q6R, N7T, S8P, H20P, V22A, E24G, E27Q, S30N, Q31R, M41V, V58I, V79I, V96I, V135I, L137R, K139D, V153I]mTNF-α(1–156) (natural protein)
stoichiometry N [16]: 3

mTNFα mutant 17, [L1V, Q6R, N7T, S8P, H20P, V22A, E24G, E27Q, S30N, Q31R, M41V, D42E, K44R, A52S, D53E, V58I, V79I, F82I, I84V, E88T, V96I, Q130R, V135I, L137R, K139D, V153I]mTNF-α(1–156) (natural protein)
stoichiometry N [17]: 3

mTNFα mutant 18, [L1V, Q6R, N7T, S8P, H20P, V22A, E24G, E27Q, S30N, Q31R, M41V, V58I, V79I, V96I, V135I, V153I]mTNF-α(1–156) (natural protein)
stoichiometry N [18]: 3

mTNFα mutant 19, [L1V, Q6R, N7T, S8P, H20P, V22A, E24G, E27Q, S30N, Q31R, M41V, D42E, K44R, V58I, V79I, V96I, P101Q, K102R, D103E, L110A, V135I, L137R, K139D, V153I]mTNF-α(1–156) (natural protein)
stoichiometry N [19]: 3

mTNFα mutant 20, [L1V, Q6R, N7T, S8P, H20P, V22A, E24G, E27Q, S30N, Q31R, M41V, D42E, K44R, V58I, D71S, Y72H, ins 71_T_72, V79I, V96I, P101Q, K102R, D103E, L110A, V135I, L137R, K139D, V153I]mTNF-α(1–156) (natural protein)
stoichiometry N [20]: 3
